Laboratory results published in patent US7232659 (dated 2007).
No end group written: not given here. *: point of attachment. For = O=C*

T1: formyl peptide receptor with a C-terminal hexahistidine tag (FPR:C-H6) (human, UniProt P21462 1-350)
T1 construct: Solubilized from membranes and captured on dextran chelate nickel (DCNi) beads; also called C-H6:FPR
T1 sequence: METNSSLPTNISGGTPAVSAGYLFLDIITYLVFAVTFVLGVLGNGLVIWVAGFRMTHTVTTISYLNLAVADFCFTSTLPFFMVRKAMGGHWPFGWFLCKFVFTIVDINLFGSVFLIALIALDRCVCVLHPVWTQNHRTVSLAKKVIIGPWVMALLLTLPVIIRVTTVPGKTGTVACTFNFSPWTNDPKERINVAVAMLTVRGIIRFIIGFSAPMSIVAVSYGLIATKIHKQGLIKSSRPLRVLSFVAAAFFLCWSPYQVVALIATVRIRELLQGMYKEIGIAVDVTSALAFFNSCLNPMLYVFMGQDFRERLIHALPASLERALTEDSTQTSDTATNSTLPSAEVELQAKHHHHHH

B1: FPR-GFP fusion protein (receptor)
chain: not shown
notes: also called R^F; receptor-GFP fusion protein
B2: fMLFFGGK (peptide)
peptide: For-MLFFGGK
notes: Synthesized by Commonwealth Biotechnologies; also called non-fluorescent ligand
B3: formyl peptide receptor (FPR), wild type, detergent-solubilized (receptor, human, UniProt P21462 1-350, looked up)
chain: METNSSLPTNISGGTPAVSAGYLFLDIITYLVFAVTFVLGVLGNGLVIWVAGFRMTHTVTTISYLNLAVADFCFTSTLPFFMVRKAMGGHWPFGWFLCKFVFTIVDINLFGSVFLIALIALDRCVCVLHPVWTQNHRTVSLAKKVIIGPWVMALLLTLPVIIRVTTVPGKTGTVACTFNFSPWTNDPKERINVAVAMLTVRGIIRFIIGFSAPMSIVAVSYGLIATKIHKQGLIKSSRPLRVLSFVAAAFFLCWSPYQVVALIATVRIRELLQGMYKEIGIAVDVTSALAFFNSCLNPMLYVFMGQDFRERLIHALPASLERALTEDSTQTSDTATNSTLPSAEVELQAK
notes: Used as a crude dodecyl maltoside extract of U937 membranes, not purified; In ternary complex assays it is occupied by the fluorescent ligand L^F; also called wild type receptor; soluble FPR
B4: FPR-Giα2 fusion protein (receptor, human;rat)
chain: METNSSLPTNISGGTPAVSAGYLFLDIITYLVFAVTFVLGVLGNGLVIWVAGFRMTHTVTTISYLNLAVADFCFTSTLPFFMVRKAMGGHWPFGWFLCKFVFTIVDINLFGSVFLIALIALDRCVCVLHPVWTQNHRTVSLAKKVIIGPWVMALLLTLPVIIRVTTVPGKTGTVACTFNFSPWTNDPKERINVAVAMLTVRGIIRFIIGFSAPMSIVAVSYGLIATKIHKQGLIKSSRPLRVLSFVAAAFFLCWSPYQVVALIATVRIRELLQGMYKEIGIAVDVTSALAFFNSCLNPMLYVFMGQDFRERLIHALPASLERALTEDSTQTSDTATNSTLPSAEVELQAKAAAMGCTVSAEDKAAAERSKMIDKNLREDGEKAAREVKLLLLGAGESGKSTIVKQMKIIHEDGYSEEECRQYRAVVYSNTIQSIMAIVKAMGNLQIDFADPQRADDARQLFALSCAAEEQGMLPEDLSGVIRRLWADHGVQACFGRSREYQLNDSAAYYLNDLERIAQSDYIPTQQDVLRTRVKTTGIVETHFTFKDLHFKMFDVGGQRSERKKWIHCFEGVTAIIFCVALSAYDLVLAEDEEMNRMHESMKLFDSICNNKWFTDTSIILFLNKKDLFEEKITQSPLTICFPEYTGANKYDEAASYIQSKFEDLNKRKDTKEIYTHFTCATDTKNVQFVFDAVTDVIIKNNLKDCGLF
notes: Solubilized from membranes; in the assays occupied by L^F (fMLFK-FITC), which gives the signal; also called FPR-αi2; FPR-Gαi2
B5: formyl-MLFK-FITC (peptide)
peptide: For-MLFK
modifications: also: FITC conjugate, site not given here
notes: all other places print fMLFK-FITC; also called fMLFK-FITC; fluorescent ligand

Assays:
[1] = molecular target: T2, G protein heterotrimer αi3β1H6γ2 (human, UniProt P62873 2-340; P59768 2-68); experiment: flow cytometry, LR^FG assembly on αβγ DCNi beads against GTPγS background
Protocol: (§1) Each mixture was mixed by pipetting to ensure a uniform starting suspension of the beads in 96 V-well plates (Costar), and then mixed at low speed on a vortex mixer at 7° for two hours. The 10 μl assays were individually brought to 200 μl with 0.1% dodecyl maltoside in buffer A in 12×75 mm tubes for flow cytometric measurement of fluorescence of the beads. LRG assembly was defined as the difference between fluorescence without GTPγS and that with GTPγS. All determinations were done in duplicate.

[2] = molecular target: T2, G protein heterotrimer αi3β1H6γ2; experiment: flow cytometry, LR^FG assembly on αβγ DCNi beads, FPR-GFP varied with saturating fMLFFGGK; binding nearly linear over the range (FIG. 12D)
[3] = molecular target: B1; experiment: flow cytometry, LR^FG assembly on αβγ DCNi beads, L varied; receptor depletes the ligand, so the filing says that the affinity of L for R^F is not revealed (FIG. 12C)
Protocol: as §1, with “Standard LRG Assembly Assay. […] Each” for “Each”

[4] = molecular target: T2, G protein heterotrimer αi3β1H6γ2; experiment: flow cytometry, L^FRG assembly on αi3β1H6γ2 DCNi beads, more nearly optimal conditions
[5] = molecular target: T2, G protein heterotrimer αi3β1H6γ2; experiment: flow cytometry, αi3β1H6γ2 on DCNi beads, 60 nM FPR with 75 nM L^F; uncoated beads about 9,000 fluorophores
Protocol: as §1
(§2) The 10 μl assay was then diluted to 200 μl for spectrofluorimetric measurement. […] Uncoated beads were used in an assembly assay, bar 1, or were coated with G protein βγ only and used in an assembly assay, bar 2.

[6] = molecular target: T3, β1H6γ2 dimer (human, UniProt P62873 2-340; P59768 2-68); experiment: flow cytometry of DCNi beads coated with βγ, 60 nM FPR and 75 nM L^F, with 0.1 mM GTPγS only background fluorescence
T3 construct: Purified from Sf9 cells and held on DCNi beads by the hexahistidine tag; also called βγ; Gβγ
Protocol: as §1, §2

[7] = molecular target: T3, β1H6γ2 dimer; experiment: flow cytometry, β1H6γ2 on DCNi beads, 1 µM GTP against GTPγS background
Protocol: as §1

[8] = molecular target: T1, formyl peptide receptor with a …; experiment: flow cytometry, hexahistidine-tagged FPR on DCNi beads, L^F titrated (FIG. 9E)
Protocol: The initial bead fluorescence was measured for twenty seconds, then an anti-FITC antibody was mixed with the beads, and the decrease in bead fluorescence was measured for another 100 seconds. The line shown is a best fit to a plateau, followed by an exponential decrease to the bottom.

[9] = molecular target: B3; experiment: spectrofluorimetry, solubilized FPR, free ligand quenched with anti-FITC antibody, ligand-binding curve of FIG. 8B
Protocol: Fluorescence was measured with an SLM 8000 spectrofluorimeter (SLM Instruments, Inc.) using the photon counting mode. The sample holder was fitted with a cylindrical cuvette adapter, which allowed the use of 200 µl samples in 7 mm×45 mm cylindrical cuvettes (Sienco; Wheat Ridge, Colo.), stirred with 2×5 mm stir bars (Bel-Art). […] Emission was monitored using a 520+/−10 nm filter (Corion) and a 500 nm long-pass filter (Kopp; Pittsburg, Pa.). Additions to samples during kinetic measurements were made through an injection port on the top of the sample holder with 10 µl glass syringes (Hamilton; Reno, Nev.).

T2 sequence (P62873 2-340, chain 1 of 2): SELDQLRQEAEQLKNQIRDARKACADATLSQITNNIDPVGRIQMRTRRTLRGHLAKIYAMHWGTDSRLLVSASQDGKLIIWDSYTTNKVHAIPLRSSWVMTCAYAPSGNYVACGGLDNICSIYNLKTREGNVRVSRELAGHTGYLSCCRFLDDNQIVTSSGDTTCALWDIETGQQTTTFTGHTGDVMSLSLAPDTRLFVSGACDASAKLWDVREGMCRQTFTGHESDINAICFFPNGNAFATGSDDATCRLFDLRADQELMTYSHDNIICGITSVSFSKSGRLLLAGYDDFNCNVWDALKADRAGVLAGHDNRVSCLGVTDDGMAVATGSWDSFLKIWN
T2 sequence (P59768 other isoform, or with tags, fused parts or gaps, chain 2 of 2): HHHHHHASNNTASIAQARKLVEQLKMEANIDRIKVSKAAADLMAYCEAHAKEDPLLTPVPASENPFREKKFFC
T3 sequence (P62873 2-340, chain 1 of 2): as the sequence (P62873 2-340, chain 1 of 2) above
T3 sequence (P59768 other isoform, or with tags, fused parts or gaps, chain 2 of 2): as the sequence (P59768 other isoform, or with tags, fused parts or gaps, chain 2 of 2) above

B1 was tested, and the “total binding to background ratio” value [1] was 4.9 ratio and the Kd [2] was 1000 nM.

B2 was tested, and the EC50 [3] was 115 nM.

In the case of B3, the signal to background [4] is reported as no more than 4 ratio, the “bead fluorescence against uncoated beads” value [5] is reported as 3 fold and the binding result [6] is reported as “no binding”.

In the case of B4, the “total fluorescence to background ratio” value [7] is reported as 2.7 ratio.

Binder B5 has a Kd [8] of roughly 8 nM and a Kd [9] of 4.8 nM.
